Substitutions are numbered along the chain they refer to. *1 amine or outer side, *2 acyl side, *3 side chain or, on linkers, in order; H or OH if unused. Side-chain parts run from the residue outwards. [ ]: non-standard residue; d: D form. The star is where a group is joined. C20 diacid = O=C(O)CCCCCCCCCCCCCCCCCCC(=O)*; C18 diacid = O=C(O)CCCCCCCCCCCCCCCCC(=O)*; γGlu = O=C(O)[C@H](CCC(=O)[*:2])N[*:1]; εLys = N[C@@H](CCCCN[*:1])C(=O)[*:2]; Stearoyl = CCCCCCCCCCCCCCCCCC(=O)*; AEEA = NCCOCCOCC(=O)O; Aib = CC(C)(N)C(=O)O
T1: human GLP-2 receptor (hGLP2-R) (human, UniProt O95838 1-553)
T1 sequence (looked up): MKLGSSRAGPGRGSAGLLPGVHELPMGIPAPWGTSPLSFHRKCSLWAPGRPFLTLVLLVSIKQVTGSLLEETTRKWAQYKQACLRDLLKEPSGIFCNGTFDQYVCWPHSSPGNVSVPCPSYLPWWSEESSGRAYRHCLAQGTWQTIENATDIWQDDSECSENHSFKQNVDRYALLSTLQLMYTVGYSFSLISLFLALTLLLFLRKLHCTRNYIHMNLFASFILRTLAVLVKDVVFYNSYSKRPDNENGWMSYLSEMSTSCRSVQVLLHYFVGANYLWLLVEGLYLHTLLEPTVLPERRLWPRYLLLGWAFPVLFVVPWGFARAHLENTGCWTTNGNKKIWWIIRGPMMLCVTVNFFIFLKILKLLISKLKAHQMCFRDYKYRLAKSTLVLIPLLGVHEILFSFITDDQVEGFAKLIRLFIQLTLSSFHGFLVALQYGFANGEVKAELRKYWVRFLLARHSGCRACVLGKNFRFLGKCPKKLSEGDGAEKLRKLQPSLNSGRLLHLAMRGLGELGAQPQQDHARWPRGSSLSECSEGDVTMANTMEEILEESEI

B1: Compound 36 (peptide)
peptide: H-H[Aib]EGSFTSELATILDK(Stearoyl)QAARDFIAWLIQYKITD-OH
SMILES: CCCCCCCCCCCCCCCCCC(=O)NCCCC[C@H](NC(=O)[C@H](CC(=O)O)NC(=O)[C@H](CC(C)C)NC(=O)[C@@H](NC(=O)[C@@H](NC(=O)[C@H](C)NC(=O)[C@H](CC(C)C)NC(=O)[C@H](CCC(=O)O)NC(=O)[C@H](CO)NC(=O)[C@@H](NC(=O)[C@H](Cc1ccccc1)NC(=O)[C@H](CO)NC(=O)CNC(=O)[C@H](CCC(=O)O)NC(=O)C(C)(C)NC(=O)[C@@H](N)Cc1c[nH]cn1)[C@@H](C)O)[C@@H](C)O)[C@@H](C)CC)C(=O)N[C@@H](CCC(N)=O)C(=O)N[C@@H](C)C(=O)N[C@@H](C)C(=O)N[C@@H](CCCNC(=N)N)C(=O)N[C@@H](CC(=O)O)C(=O)N[C@@H](Cc1ccccc1)C(=O)N[C@H](C(=O)N[C@@H](C)C(=O)N[C@@H](Cc1c[nH]c2ccccc12)C(=O)N[C@@H](CC(C)C)C(=O)N[C@H](C(=O)N[C@@H](CCC(N)=O)C(=O)N[C@@H](Cc1ccc(O)cc1)C(=O)N[C@@H](CCCCN)C(=O)N[C@H](C(=O)N[C@H](C(=O)N[C@@H](CC(=O)O)C(=O)O)[C@@H](C)O)[C@@H](C)CC)[C@@H](C)CC)[C@@H](C)CC
B2: Compound 39 (peptide)
peptide: HXEGTFTSELATILDEQAARDFIAWLIAHKITDXXXXXXX
HELM: PEPTIDE1{H.[Aib].E.G.T.F.T.S.E.L.A.T.I.L.D.E.Q.A.A.R.D.F.I.A.W.L.I.A.H.K.I.T.D.[dK].[dK].[dK].[dK].[dK].[dK].[am]}|PEPTIDE2{[O=C(O)CCCCCCCCCCCCCCCCC(=O)[*:2]].[gGlu]}$PEPTIDE1,PEPTIDE2,39:R3-2:R2$$$V2.0
SMILES: CC[C@H](C)[C@H](NC(=O)[C@H](CC(C)C)NC(=O)[C@H](Cc1c[nH]c2ccccc12)NC(=O)[C@H](C)NC(=O)[C@@H](NC(=O)[C@H](Cc1ccccc1)NC(=O)[C@H](CC(=O)O)NC(=O)[C@H](CCCNC(=N)N)NC(=O)[C@H](C)NC(=O)[C@H](C)NC(=O)[C@H](CCC(N)=O)NC(=O)[C@H](CCC(=O)O)NC(=O)[C@H](CC(=O)O)NC(=O)[C@H](CC(C)C)NC(=O)[C@@H](NC(=O)[C@@H](NC(=O)[C@H](C)NC(=O)[C@H](CC(C)C)NC(=O)[C@H](CCC(=O)O)NC(=O)[C@H](CO)NC(=O)[C@@H](NC(=O)[C@H](Cc1ccccc1)NC(=O)[C@@H](NC(=O)CNC(=O)[C@H](CCC(=O)O)NC(=O)C(C)(C)NC(=O)[C@@H](N)Cc1c[nH]cn1)[C@@H](C)O)[C@@H](C)O)[C@@H](C)O)[C@@H](C)CC)[C@@H](C)CC)C(=O)N[C@@H](C)C(=O)N[C@@H](Cc1c[nH]cn1)C(=O)N[C@@H](CCCCN)C(=O)N[C@H](C(=O)N[C@H](C(=O)N[C@@H](CC(=O)O)C(=O)N[C@H](CCCCN)C(=O)N[C@H](CCCCN)C(=O)N[C@H](CCCCN)C(=O)N[C@H](CCCCN)C(=O)N[C@H](CCCCN)C(=O)N[C@H](CCCCNC(=O)CC[C@H](NC(=O)CCCCCCCCCCCCCCCCC(=O)O)C(=O)O)C(N)=O)[C@@H](C)O)[C@@H](C)CC
B3: Compound 40 (peptide)
peptide: B2 peptide with T5S, A28E
HELM: PEPTIDE1{H.[Aib].E.G.S.F.T.S.E.L.A.T.I.L.D.E.Q.A.A.R.D.F.I.A.W.L.I.E.H.K.I.T.D.[dK].[dK].[dK].[dK].[dK].[dK].[am]}|PEPTIDE2{[O=C(O)CCCCCCCCCCCCCCCCC(=O)[*:2]].[gGlu]}$PEPTIDE1,PEPTIDE2,39:R3-2:R2$$$V2.0
SMILES: CC[C@H](C)[C@H](NC(=O)[C@H](Cc1ccccc1)NC(=O)[C@H](CC(=O)O)NC(=O)[C@H](CCCNC(=N)N)NC(=O)[C@H](C)NC(=O)[C@H](C)NC(=O)[C@H](CCC(N)=O)NC(=O)[C@H](CCC(=O)O)NC(=O)[C@H](CC(=O)O)NC(=O)[C@H](CC(C)C)NC(=O)[C@@H](NC(=O)[C@@H](NC(=O)[C@H](C)NC(=O)[C@H](CC(C)C)NC(=O)[C@H](CCC(=O)O)NC(=O)[C@H](CO)NC(=O)[C@@H](NC(=O)[C@H](Cc1ccccc1)NC(=O)[C@H](CO)NC(=O)CNC(=O)[C@H](CCC(=O)O)NC(=O)C(C)(C)NC(=O)[C@@H](N)Cc1c[nH]cn1)[C@@H](C)O)[C@@H](C)O)[C@@H](C)CC)C(=O)N[C@@H](C)C(=O)N[C@@H](Cc1c[nH]c2ccccc12)C(=O)N[C@@H](CC(C)C)C(=O)N[C@H](C(=O)N[C@@H](CCC(=O)O)C(=O)N[C@@H](Cc1c[nH]cn1)C(=O)N[C@@H](CCCCN)C(=O)N[C@H](C(=O)N[C@H](C(=O)N[C@@H](CC(=O)O)C(=O)N[C@H](CCCCN)C(=O)N[C@H](CCCCN)C(=O)N[C@H](CCCCN)C(=O)N[C@H](CCCCN)C(=O)N[C@H](CCCCN)C(=O)N[C@H](CCCCNC(=O)CC[C@H](NC(=O)CCCCCCCCCCCCCCCCC(=O)O)C(=O)O)C(N)=O)[C@@H](C)O)[C@@H](C)CC)[C@@H](C)CC
B4: Compound 35 (peptide)
peptide: H-H[Aib]EGSFTSELATILDK([AEEA-AEEA-AEEA-εLys-C20 diacid])QAARDFIAWLIQQKITD-OH
SMILES: CC[C@H](C)[C@H](NC(=O)[C@H](Cc1ccccc1)NC(=O)[C@H](CC(=O)O)NC(=O)[C@H](CCCNC(=N)N)NC(=O)[C@H](C)NC(=O)[C@H](C)NC(=O)[C@H](CCC(N)=O)NC(=O)[C@H](CCCCNC(=O)COCCOCCNC(=O)COCCOCCNC(=O)COCCOCCNC(=O)[C@@H](N)CCCCNC(=O)CCCCCCCCCCCCCCCCCCC(=O)O)NC(=O)[C@H](CC(=O)O)NC(=O)[C@H](CC(C)C)NC(=O)[C@@H](NC(=O)[C@@H](NC(=O)[C@H](C)NC(=O)[C@H](CC(C)C)NC(=O)[C@H](CCC(=O)O)NC(=O)[C@H](CO)NC(=O)[C@@H](NC(=O)[C@H](Cc1ccccc1)NC(=O)[C@H](CO)NC(=O)CNC(=O)[C@H](CCC(=O)O)NC(=O)C(C)(C)NC(=O)[C@@H](N)Cc1c[nH]cn1)[C@@H](C)O)[C@@H](C)O)[C@@H](C)CC)C(=O)N[C@@H](C)C(=O)N[C@@H](Cc1c[nH]c2ccccc12)C(=O)N[C@@H](CC(C)C)C(=O)N[C@H](C(=O)N[C@@H](CCC(N)=O)C(=O)N[C@@H](CCC(N)=O)C(=O)N[C@@H](CCCCN)C(=O)N[C@H](C(=O)N[C@H](C(=O)N[C@@H](CC(=O)O)C(=O)O)[C@@H](C)O)[C@@H](C)CC)[C@@H](C)CC
B5: Compound 34 (peptide)
peptide: H-H[Aib]EGSFTSELATILDK([AEEA-AEEA-γGlu-C20 diacid])QAARDFIAWLKQHKITD-OH
SMILES: CC[C@H](C)[C@H](NC(=O)[C@H](Cc1ccccc1)NC(=O)[C@H](CC(=O)O)NC(=O)[C@H](CCCNC(=N)N)NC(=O)[C@H](C)NC(=O)[C@H](C)NC(=O)[C@H](CCC(N)=O)NC(=O)[C@H](CCCCNC(=O)COCCOCCNC(=O)COCCOCCNC(=O)CC[C@H](NC(=O)CCCCCCCCCCCCCCCCCCC(=O)O)C(=O)O)NC(=O)[C@H](CC(=O)O)NC(=O)[C@H](CC(C)C)NC(=O)[C@@H](NC(=O)[C@@H](NC(=O)[C@H](C)NC(=O)[C@H](CC(C)C)NC(=O)[C@H](CCC(=O)O)NC(=O)[C@H](CO)NC(=O)[C@@H](NC(=O)[C@H](Cc1ccccc1)NC(=O)[C@H](CO)NC(=O)CNC(=O)[C@H](CCC(=O)O)NC(=O)C(C)(C)NC(=O)[C@@H](N)Cc1c[nH]cn1)[C@@H](C)O)[C@@H](C)O)[C@@H](C)CC)C(=O)N[C@@H](C)C(=O)N[C@@H](Cc1c[nH]c2ccccc12)C(=O)N[C@@H](CC(C)C)C(=O)N[C@@H](CCCCN)C(=O)N[C@@H](CCC(N)=O)C(=O)N[C@@H](Cc1c[nH]cn1)C(=O)N[C@@H](CCCCN)C(=O)N[C@H](C(=O)N[C@H](C(=O)N[C@@H](CC(=O)O)C(=O)O)[C@@H](C)O)[C@@H](C)CC

target: human glucagon-like peptide 1 receptor (GLP-1 R) (human, UniProt P43220 24-463); experiment: cell-based or functional assay

Row | EC50 GLP-1 (nM); cAMP response | Binder
1 | 0.048 nM | H-H[Aib]EGTFTSELATILDK([γGlu-C20 diacid])QAARDFIAWLIQHKITD-OH [Compound 41]
2 | 0.25 nM | H-H[Aib]EGTFSSELATILDEQAARDFIAWLIAHKITD[dK][dK][dK][dK][dK][dK]([γGlu-C18 diacid])-NH2 [Compound 38]
3 | 0.32 nM | B1
4 | 0.044 nM | B2
5 | 0.074 nM | B3
6 | 0.099 nM | B4
7 | 0.28 nM | B5

target: T1, human GLP-2 receptor (hGLP2-R); experiment: cell-based or functional assay

Row | EC50 GLP-2 (nM); cAMP response | Binder
8 | 0.62 nM | H-H[Aib]EGTFTSELATILDK([γGlu-C20 diacid])QAARDFIAWLIQHKITD-OH [Compound 41]
9 | 0.89 nM | H-H[Aib]EGTFSSELATILDEQAARDFIAWLIAHKITD[dK][dK][dK][dK][dK][dK]([γGlu-C18 diacid])-NH2 [Compound 38]
10 | 3.2 nM | B1
11 | 0.98 nM | B2
12 | 0.5 nM | B3
13 | 0.3 nM | B4
14 | 0.13 nM | B5

Source: US20200297818A1 (ZEALAND PHARMA A S, published 2020)
